The values that follow come from patent US20060058231A1 (Xencor, published 2006).

Test [1] concerns the target T1, BMPRII receptor/Fc fusion (R&D Systems) (UniProt Q13873 27-151, limits assumed).
T1 construct: not shown: Fc portion of the fusion
T1 sequence (looked up): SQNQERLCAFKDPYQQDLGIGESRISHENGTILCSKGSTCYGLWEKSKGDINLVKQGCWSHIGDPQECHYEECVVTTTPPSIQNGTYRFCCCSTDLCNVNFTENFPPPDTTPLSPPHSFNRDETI
Nature of the test: plate direct binding assay (ELISA-like): BMP-7 captured by anti-BMP-7 antibody, receptor-Fc titrated (x axis Receptor, ug/mL), anti-human IgG-HRP, absorbance 450 nm. (In general: An ELISA detects its analyte on a solid surface through an enzyme-linked reagent.)

In test [2] the target is T2, ActRIIa receptor/Fc fusion (R&D Systems) (UniProt P27037 20-134, limits assumed).
T2 construct: not shown: Fc portion of the fusion
The test is described as above.

Test [3] addresses T3, BMPRIa receptor/Fc fusion (R&D Systems) (UniProt P36894 24-152).
T3 construct: also called ALK-3; not shown: Fc portion of the fusion
The description is as above.

The target in test [4] is T4, BMPRIb receptor/Fc fusion (R&D Systems) (UniProt O00238 14-126).
T4 construct: also called ALK-6; not shown: Fc portion of the fusion
T4 sequence (looked up): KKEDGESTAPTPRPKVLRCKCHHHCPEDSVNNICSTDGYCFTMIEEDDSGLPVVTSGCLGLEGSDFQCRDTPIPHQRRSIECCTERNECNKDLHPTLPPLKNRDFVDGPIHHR
Described as above.

The target in test [5] is T2, ActRIIa receptor/Fc fusion (R&D Systems). Nature of the test: plate direct binding assay, receptor-Fc detection, 12-point dilution of conditioned media. Here is the method:
(§1) The affinity of human and variant BMP-7 for several BMP receptors (ActRIa, BMPRIb, ActRIIa, and BMPRII) was measured using an ELISA-like assay, described below. 96-well plates were coated with a capture antibody (R&D Systems BMP-7 ELISA Duoset DY354, part #840971) by diluting the antibody to 2 μg/mL in PBS, applying 50 μL/well, and incubating overnight or over the weekend at 4° C., in a humidified chamber. Excess liquid was removed from each plate. The plates were blocked by adding 175 μL blocking solution (1% BSA and 5% sucrose in PBS) to each well and incubating 1-2 hours at room temperature in a humidified chamber. The plates were then washed using an automated plate washer. 50 μL of BMP-7 containing solution (for example, diluted conditioned media obtained from the BMP-7 expression protocol above, or purified recombinant human BMP-7 of a known concentration) was added to each well and incubated 1.5-2 hours at room temperature in a humidified chamber. The plates were then washed using an automated plate washer. 50 μL of 5 μg/mL BMP receptor-Fc fusion in PBS was added to each well and incubated 1.5 hours at room temperature in a humidified chamber. The plates were then washed using an automated plate washer. 50 μL of 1:10,000 diluted anti-human IgG-HRP conjugate in secondary antibody dilution buffer (1% BSA in PBS, filtered through a 0.2 […] filter) was added to each well and incubated 30 minutes at room temperature in a humidified chamber. The plates were then washed using an automated plate washer. 50 μL of pre-mixed TMB substrate (BD Pharmingen #555214) was added to each well and incubated for 10-20 minutes at room temperature in the dark. 25 μL of 2N H₂SO₄ was added to each well. Absorbance readings at 450 nm were taken using a 540 nm wavelength correction.
(§2) To further characterize receptor binding, dose-response binding assays, using 12-point serial dilutions from conditioned media, were conducted for selected Library 1 variants.

Test [6] addresses T5, ActRIIb receptor/Fc fusion (R&D Systems) (UniProt Q13705 19-134, limits assumed).
T5 construct: not shown: Fc portion of the bought fusion
Nature of the test: fluorescence anisotropy, labeled BMP-7 added to serial dilutions of receptor/Fc fusion (x axis [receptor] uM). How it is done: (§3) The binding of selected variants to BMP receptors, antibodies, and inhibitors was characterized using a fluorescence binding assay and the AlphaScreen™ assay. […] Small-scale (25 uL) reactions were performed using 15 uM BMP-7 and dye concentrations ranging from 0.3 uM to 1000 uM. […] The reaction was quenched with Tris pH 8.0 and cleaned up using a PD-10 desalt column; the second fraction was used in the experiments described below. BMP-7 was also labeled with C6-FXS, a FITC-derived fluorophore with a 6-carbon spacer between the fluor and the NHS group. Labeling conditions with various ratios of protein to dye were tested, in 20 mM PO4, 500 mM NaCl, pH 7 solution. After establishing labeling conditions, 500 ug Y65N/S120D was labeled. Excess dye was removed by centrifugation and a PD-10 desalt column.
(§4) The flourescently labeled BMP-7 was added to serial dilutions of receptor/Fc fusions of the BMP-7 receptors ActRIa, BMPRIa, BMPRIb, ActRIIa, ActRIIb, and BMPRII (R&D Systems). Experiments were also performed in which the fluorescently labeled BMP-7 was added to serial dilutions of noggin/Fc or gremlin (R&D Systems). The labeled BMP-7 and receptor or inhibitor was allowed to incubate, and the fluorescence polarization and intensity was measured using a TopCount plate reader.
On the technique in general: Fluorescence polarisation rises when a labelled molecule tumbles more slowly, as on binding a larger partner.

Test [7] addresses T2, ActRIIa receptor/Fc fusion (R&D Systems). The test is described as above. How it is done:
as §3, §4

Test [8] has as its target T3, BMPRIa receptor/Fc fusion (R&D Systems). The description is as above. Here is the method: as §3, §4
Test [9] deals with T1, BMPRII receptor/Fc fusion (R&D Systems). Nature of the test: plate direct binding assay, receptor-Fc detection, 12-point dilution of conditioned media. How it is done:
as §1, §2

Substitutions are numbered along the chain they refer to. Names and notes keep the numbering of the source.

T2 sequence (P27037 20-134 limits assumed): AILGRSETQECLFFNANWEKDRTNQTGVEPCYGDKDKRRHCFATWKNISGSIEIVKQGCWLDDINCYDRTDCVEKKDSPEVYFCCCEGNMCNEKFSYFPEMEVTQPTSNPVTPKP
T3 sequence (P36894 24-152 limits assumed): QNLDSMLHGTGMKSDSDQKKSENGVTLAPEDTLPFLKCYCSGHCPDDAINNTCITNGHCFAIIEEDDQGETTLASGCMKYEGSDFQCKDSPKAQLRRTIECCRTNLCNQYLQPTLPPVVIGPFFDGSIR
T5 sequence (Q13705 19-134 limits assumed): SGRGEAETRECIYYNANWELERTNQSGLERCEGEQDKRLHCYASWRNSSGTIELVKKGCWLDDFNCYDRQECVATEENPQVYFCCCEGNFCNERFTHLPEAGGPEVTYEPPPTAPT

B1: wild type human BMP-7 (Image clone) (ligand)
chain: STGGKQRSQNRSKTPKNQEALRMASVAENSSSDQRQACKKHELYVSFRDLGWQDWIIAPEGYAAYYCEGECAFPLNSYMNATNHAIVQTLVHFINPETVPKPCCAPTQLNAISVLYFDDSSNVILKKYRNMVVRACGCH
notes: The pro-protein is processed to a dimeric mature BMP-7; also called WT; wild-type BMP-7
Turning to B1, the “EC50 (read off the curve)” value in [1] was roughly 1 µg/mL; in test [2], roughly 0.2 µg/mL; in test [3], roughly 1 µg/mL; in [4], roughly 0.7 µg/mL.

B2: BMP-7 variant M23N (ligand)
chain: B1 chain with M23N
Turning to B2, the “fold increased affinity relative to wild type” value in test [5] is roughly 10 fold.

B3: FXS labeled BMP7 (ligand)
BMP-7 mature domain: B1 chain with Y65N, S120D
modifications: labeled with C6-FXS (FITC-derived NHS fluorophore); labeled sites not given
notes: the C6-FXS form of the labeled BMP-7 that the list holds jointly as 1.m9; also called BMP-7 variant Y65N/S120D labeled with C6-FXS
Turning to B3, the concentration giving a half-maximal response (EC50 (read off the curve)) is roughly 2000 nM in [6], roughly 3000 nM in test [7] and roughly 1000 nM in [8].

B4: BMP-7 variant I86D (ligand)
chain: B1 chain with I86D
In the case of B4, in test [9], the “fold reduced affinity relative to wild type” value was roughly 10 fold.

B5: BMP-7 variant Q53G (ligand)
chain: B1 chain with Q53G
Take B5: the “fold increased affinity relative to wild type” value in test [5] is roughly 10 fold.

B6: BMP-7 variant Q53H (ligand)
chain: B1 chain with Q53H
On to B6, for which the “fold reduced affinity relative to wild type” value in [9] was roughly 10 fold.

As usually defined, the EC50 (read off the curve) is the concentration that produces a half-maximal response. A lower EC50 (read off the curve) goes with an effect from little substance.
